The supplement of paper PMC12667976
± gives the standard error.

B1: library; numbered along this chain (parent)
chain: MATDAALRRLLRLHRTEIAVAVDSAFPLLHALADHDVVPEDKFQETLHLKEKEGCPQAFHALLSWLLTQDSTAILDFWRVLFKDYNLERYGRLQPILDSFPKDVDLSQPRKGRKPPAVPKALVPPPRLPTKRKASEEARAAAPAALTPRGTASPGSQLKAKPPKKPESSAEQQRLPLGNGIQTMSASVQRAVAMSSGDVPGARGAVEGILIQQVFESGGSKKCIQVGGEFYTPSKFEDSGSGKNKARSSSGPKPLVRAKGAQGAAPGGGEARLGQQGSVPAPLALPSDPQLHQKNEDECAVCRDGGELICCDGCPRAFHLACLSPPLREIPSGTWRCSSCLQATVQEVQPRAEEPRPQEPPVETPLPPGLRSAGEEVRGPPGEPLAGMDTTLVYKHLPAPPSAAPLPGLDSSALHPLLCVGPEGQQNLAPGARCGVCGDGTDVLRCTHCAAAFHWRCHFPAGTSRPGTGLRCRSCSGDVTPAPVEGVLAPSPARLAPGPAKDDTASHEPALHRDDLESLLSEHTFDGILQWAIQSMARPAAPFPS

Variants of: B1
Assay: AIRE transcriptional activation functional score (insulin promoter-GFP; nonsense median 0, synonymous median 1) (normalised score); higher = higher AIRE activity (more reporter activation)
Conditions: with insulin promoter-GFP reporter in HEK293
Experimental: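 Deep mutational scan of full-length human AIRE (codon-optimized cDNA, DT-POPCode NNN libraries over three regions) integrated at a Bxb1 landing pad in HEK293 cells carrying an insulin core promoter-GFP reporter at a Flp-In site. Cells were sorted for the top 10% GFP about 14 days after transfection. Variant frequency log-ratios (select vs non-select, TileSeq) were rescaled so that the nonsense median is 0 and the synonymous median is 1, then averaged over biological replicates.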

AIRE transcriptional activation functional score: each site, then its substitutions
R132: M 0.275 ± 0.13; S 0.00923 ± 0.41; K 0.0662 ± 0.16; W 0.538 ± 0.051; I -0.0777 ± 0.2; G 0.129 ± 0.2; F -0.0252 ± 0.14; Q 0.308 ± 0.29; T -0.125 ± 0.69; P -0.258 ± 0.42; L -0.017 ± 0.32; V -0.3 ± 0.31; E 0.0732 ± 0.14; A 0.179 ± 0.53; C -0.0301 ± 0.38; H 0.458 ± 0.6; D 0.252 ± 0.23; N -0.47 ± 0.23
P129: C 0.895 ± 0.2; K 1.07 ± 0.73; E -0.0453 ± 0.46; M 0.564 ± 0.18; S 0.685 ± 0.55; G 0.951 ± 0.62; W -0.183 ± 0.087; H -0.142 ± 0.24; V 0.215 ± 0.2; I 0.253 ± 0.74; A 0.717 ± 0.53; R 0.451 ± 0.35; D 0.0133 ± 0.42; Q 0.651 ± 0.14; Y 0.0475 ± 0.46; N 0.901 ± 0.6; F 0.395 ± 0.1; L 0.107 ± 0.25; T 1.17 ± 0.79
L128: T 1.62 ± 0.54; K -0.124 ± 0.14; I 1.19 ± 0.19; C 1.19 ± 0.3; A 1.19 ± 0.6; P 1.17 ± 0.34; R 0.525 ± 0.62; D -0.0224 ± 0.18; F 1.43 ± 0.27; Y 1.41 ± 0.52; H 0.857 ± 0.26; V 1.12 ± 0.24; M 1.32 ± 0.058; Q 0.496 ± 0.2; G 1.51 ± 0.26; W 1.39 ± 0.091; S 0.817 ± 0.16; N 1.02 ± 0.23; E 0.0699 ± 0.22
K131: I -0.103 ± 0.13; A 0.284 ± 0.099; W -0.218 ± 0.026; E 0.0987 ± 0.29; N 0.0453 ± 0.36; S 0.0229 ± 0.23; L -0.159 ± 0.3; Q -0.125 ± 0.077; C -0.0234 ± 0.18; M 0.154 ± 0.08; R -0.372 ± 0.3; H 0.185 ± 0.12; F 0.0637 ± 0.14; V 0.174 ± 0.31; G -0.226 ± 0.29; D -0.154 ± 0.41; T -0.293 ± 0.16; P 0.0359 ± 0.37; Y 0.0539 ± 0.21
R127: E 0.317 ± 0.17; K 0.758 ± 0.21; S 0.869 ± 0.22; H 0.326 ± 0.35; G 0.421 ± 0.18; C 0.833 ± 0.084; M 1.1 ± 0.049; T 0.335 ± 0.37; W 0.912 ± 0.12; N 1.09 ± 0.27; Y 0.503 ± 0.099; V 0.801 ± 0.21; Q 0.887 ± 0.18; I 0.611 ± 0.18; A 0.314 ± 0.39; L 0.607 ± 0.27; D 0.358 ± 0.12; F 0.897 ± 0.11; P 0.804 ± 0.38
P125: H 1.27 ± 0.22; W 1.36 ± 0.14; R 0.79 ± 0.34; Y 0.77 ± 0.17; E 0.892 ± 0.15; L 1.24 ± 0.24; G 1.08 ± 0.39; C 0.918 ± 0.33; F 0.97 ± 0.082; V 1.19 ± 0.25; T 1.42 ± 0.28; I 1.36 ± 0.48; K 0.907 ± 0.37; N 0.92 ± 0.2; Q 0.768 ± 0.42; A 1.25 ± 0.44; D 0.901 ± 0.16; M 1.18 ± 0.048; S 1.04 ± 0.39
P126: H 0.139 ± 0.23; I 0.105 ± 0.14; V 0.0693 ± 0.094; A 0.621 ± 0.17; E 0.762 ± 0.25; G 1.42 ± 0.35; D 0.773 ± 0.063; F 0.304 ± 0.22; R -0.0135 ± 0.24; W 0.0843 ± 0.12; K 1.08 ± 0.12; L 0.122 ± 0.14; M 0.141 ± 0.079; Y -0.0102 ± 0.2; S 0.0633 ± 0.23; N 0.042 ± 0.11; T 0.134 ± 0.17; C 0.317 ± 0.087; Q -0.177 ± 0.055
T130: N 0.915 ± 0.14; A 1.78 ± 0.43; W 1.39 ± 0.29; R 0.316 ± 0.33; C 1.38 ± 0.32; L 1.13 ± 0.48; D 0.225 ± 0.23; K 0.531 ± 0.12; S 1.36 ± 0.41; V 0.747 ± 0.4; F 1.71 ± 0.24; I 1.05 ± 0.38; E 0.325 ± 0.53; Y 1.11 ± 0.15; G 1.13 ± 0.6; P 1.36 ± 0.33; H 0.621 ± 0.2
P124: W 1.5 ± 0.057; K 0.627 ± 0.26; I 1.71 ± 0.21; E 0.934 ± 0.7; S 1.08 ± 0.38; C 1.15 ± 0.32; V 1.65 ± 0.37; Y 1.81 ± 0.44; D 0.6 ± 0.38; G 1.27 ± 0.41; L 1.09 ± 0.26; N 0.804 ± 0.27; F 1.35 ± 0.25; M 1.48 ± 0.096; Q 0.964 ± 0.14; T 0.68 ± 0.46; R 0.769 ± 0.43; H 0.958 ± 0.27
